PMC7112233, “E2f5 is a versatile transcriptional activator required for spermatogenesis and multiciliated cell differentiation in zebrafish”

Biological target: T1, E2f5 (zebrafish, UniProt A5WUE8 1-363)
T1 sequence: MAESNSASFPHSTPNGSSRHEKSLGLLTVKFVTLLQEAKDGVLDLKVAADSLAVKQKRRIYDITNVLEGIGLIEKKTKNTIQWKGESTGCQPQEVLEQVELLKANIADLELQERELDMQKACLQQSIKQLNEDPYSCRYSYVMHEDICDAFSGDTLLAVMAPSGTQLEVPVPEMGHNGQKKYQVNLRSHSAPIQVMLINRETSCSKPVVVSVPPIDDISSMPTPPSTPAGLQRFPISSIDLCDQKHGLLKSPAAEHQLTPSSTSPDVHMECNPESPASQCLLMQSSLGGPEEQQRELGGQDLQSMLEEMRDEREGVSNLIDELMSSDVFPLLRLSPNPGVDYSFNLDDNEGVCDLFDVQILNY
Assay: EMSA; 10 mM Tris-HCl pH 8.0, 50 mM NaCl, 1 mM MgCl2, 0.5 mM EDTA, 0.5 mM DTT, 4% glycerol; 3 ug protein, 1 ul annealed oligo (25 uM stock); 40 min room temperature; 6.5% native PAGE
Settings: protein: recombinant; tags: His (pET30A, Ni-NTA purified); label: 5'-FAM; annealed with complementary oligonucleotide

B1: dmc1 E2F site wild-type probe (dsDNA)
DNA 1: TGTCAACATACGATTGTGGCGCGAAATTTCTTTCAGC
DNA 2: GCTGAAAGAAATTTCGCGCCACAATCGTATGTTGACA
- binding result: binds

B2: dmc1 E2F site mutant probe (dsDNA)
DNA 1: TGTCAACATACGATTGTAAATTTAAATTTCTTTCAGC
DNA 2: GCTGAAAGAAATTTAAATTTACAATCGTATGTTGACA
- binding result: no binding
